Experimental data as given in article PMC9482650, “Quantitative fragmentomics allow affinity mapping of interactomes” (Nature Communications, 2022).

What was measured:
Assay in all cases: holdup assay
Set-up in all cases: key: below the threshold = too weak to quantify, mostly under pKd 3.1 to 4
Conditions in all cases: plain residues with an end cap or a label only (N-terminal biotin on a linker: ado-ado)
FRMPD4, Q14CM0 = molecular target: FRMPD4, Q14CM0
DLG2_2, Q15700 = molecular target: DLG2_2, Q15700
DLG2_2, Q15700, sequence (Q15700 189-283): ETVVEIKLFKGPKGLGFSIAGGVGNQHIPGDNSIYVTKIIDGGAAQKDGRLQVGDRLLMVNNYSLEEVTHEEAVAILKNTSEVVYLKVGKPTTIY

ARHGAP21, Q5T5U3 = molecular target: T1, ARHGAP21, Q5T5U3
T1 sequence (Q5T5U3 45-169, limits assumed, looked up): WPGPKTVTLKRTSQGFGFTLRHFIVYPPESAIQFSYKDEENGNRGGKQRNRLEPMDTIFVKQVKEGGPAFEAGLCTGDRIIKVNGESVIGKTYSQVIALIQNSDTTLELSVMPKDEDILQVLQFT

APBA2_1, Q99767 = molecular target: T2, APBA2_1, Q99767
T2 sequence (Q99767 563-664, limits assumed, looked up): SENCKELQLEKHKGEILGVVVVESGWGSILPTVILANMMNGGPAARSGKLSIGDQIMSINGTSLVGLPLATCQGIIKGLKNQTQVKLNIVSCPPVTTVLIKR

DLG1_2, Q12959 = molecular target: DLG1_2, Q12959
DLG1_2, Q12959, sequence (Q12959 314-412): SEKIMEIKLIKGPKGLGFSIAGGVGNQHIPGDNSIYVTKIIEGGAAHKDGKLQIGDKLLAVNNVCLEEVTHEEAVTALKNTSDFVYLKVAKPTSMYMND

GRIP1_7, Q9Y3R0 = molecular target: T3, GRIP1_7, Q9Y3R0
T3 sequence (Q9Y3R0 999-1096, limits assumed, looked up): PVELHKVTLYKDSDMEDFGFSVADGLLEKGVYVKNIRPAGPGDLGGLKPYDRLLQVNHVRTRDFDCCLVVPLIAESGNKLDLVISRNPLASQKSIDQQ

DFNB31_2, Q9P202 = molecular target: T4, DFNB31_2, Q9P202
T4 sequence (Q9P202 274-371, limits assumed, looked up): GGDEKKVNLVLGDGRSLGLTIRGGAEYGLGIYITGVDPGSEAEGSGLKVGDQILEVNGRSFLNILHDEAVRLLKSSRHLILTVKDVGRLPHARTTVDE

MAGI2_2, Q86UL8 = molecular target: MAGI2_2, Q86UL8
MAGI2_2, Q86UL8, sequence (Q86UL8 410-522): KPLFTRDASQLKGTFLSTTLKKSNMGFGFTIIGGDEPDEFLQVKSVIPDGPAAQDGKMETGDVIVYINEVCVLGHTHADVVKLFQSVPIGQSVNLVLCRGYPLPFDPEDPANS

IL16_4, Q14005 = molecular target: IL16_4, Q14005
IL16_4, Q14005, sequence (Q14005 1229-1329): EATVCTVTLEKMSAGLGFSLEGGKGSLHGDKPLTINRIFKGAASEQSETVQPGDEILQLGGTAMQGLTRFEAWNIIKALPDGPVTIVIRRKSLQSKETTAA

PTPN13_1, Q12923 = molecular target: T5, PTPN13_1, Q12923
T5 sequence (Q12923 1088-1188, limits assumed, looked up): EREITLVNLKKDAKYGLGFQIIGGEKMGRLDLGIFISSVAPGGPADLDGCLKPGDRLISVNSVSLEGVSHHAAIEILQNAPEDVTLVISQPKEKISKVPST

APBA2_2, Q99767 = molecular target: T6, APBA2_2, Q99767
T6 sequence (Q99767 654-744, limits assumed, looked up): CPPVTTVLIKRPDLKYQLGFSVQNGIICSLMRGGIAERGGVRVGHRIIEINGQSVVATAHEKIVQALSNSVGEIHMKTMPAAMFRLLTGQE

DLG3_1, Q92796 = molecular target: T7, DLG3_1, Q92796
T7 sequence (Q92796 125-227, limits assumed, looked up): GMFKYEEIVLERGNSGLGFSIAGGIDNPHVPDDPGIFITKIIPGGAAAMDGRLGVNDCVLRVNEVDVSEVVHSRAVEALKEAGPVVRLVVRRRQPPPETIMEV

GIPC2, Q8TF65 = molecular target: GIPC2, Q8TF65
GIPC2, Q8TF65, sequence (Q8TF65 112-203): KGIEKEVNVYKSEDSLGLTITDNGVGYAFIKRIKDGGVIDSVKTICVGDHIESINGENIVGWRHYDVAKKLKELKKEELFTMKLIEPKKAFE

FRMPD2_1, Q68DX3 = molecular target: FRMPD2_1, Q68DX3
FRMPD2_1, Q68DX3, sequence (Q68DX3 770-861): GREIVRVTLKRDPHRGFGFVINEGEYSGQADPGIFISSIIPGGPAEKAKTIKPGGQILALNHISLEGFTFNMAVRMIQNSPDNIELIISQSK

NHERF3_1, Q5T2W1 = molecular target: T8, NHERF3_1, Q5T2W1
T8 sequence (Q5T2W1 4-100, limits assumed, looked up): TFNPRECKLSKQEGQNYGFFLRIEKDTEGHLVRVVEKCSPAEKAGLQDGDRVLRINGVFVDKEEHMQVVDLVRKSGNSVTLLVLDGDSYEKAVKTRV

SIPA1L2, Q9P2F8 = molecular target: T9, SIPA1L2, Q9P2F8
T9 sequence (Q9P2F8 945-1036, limits assumed, looked up): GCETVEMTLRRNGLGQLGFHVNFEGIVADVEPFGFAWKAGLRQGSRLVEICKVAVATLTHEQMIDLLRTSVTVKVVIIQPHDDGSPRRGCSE

Inadl_5, Q8NI35 = molecular target: Inadl_5, Q8NI35
Inadl_5, Q8NI35, sequence (Q8NI35 673-780): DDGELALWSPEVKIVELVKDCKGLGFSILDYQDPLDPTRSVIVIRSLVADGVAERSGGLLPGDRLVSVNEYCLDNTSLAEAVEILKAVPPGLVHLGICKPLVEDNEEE

GRID2IP_1, A4D2P6 = molecular target: GRID2IP_1, A4D2P6
GRID2IP_1, A4D2P6, sequence (A4D2P6 1-87): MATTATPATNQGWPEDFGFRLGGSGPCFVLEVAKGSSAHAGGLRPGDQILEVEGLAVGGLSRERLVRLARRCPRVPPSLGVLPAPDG

Inadl_2, Q8NI35 = molecular target: Inadl_2, Q8NI35
Inadl_2, Q8NI35, sequence (Q8NI35 238-335): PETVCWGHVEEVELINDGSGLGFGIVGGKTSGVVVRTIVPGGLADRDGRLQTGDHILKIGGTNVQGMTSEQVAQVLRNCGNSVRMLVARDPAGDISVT

MAGI2_3, Q86UL8 = molecular target: MAGI2_3, Q86UL8
MAGI2_3, Q86UL8, sequence (Q86UL8 600-682): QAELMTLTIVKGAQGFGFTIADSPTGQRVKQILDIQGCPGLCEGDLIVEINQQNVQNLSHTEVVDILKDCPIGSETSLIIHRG

DLG1_3, Q12959 = molecular target: DLG1_3, Q12959
DLG1_3, Q12959, sequence (Q12959 457-571): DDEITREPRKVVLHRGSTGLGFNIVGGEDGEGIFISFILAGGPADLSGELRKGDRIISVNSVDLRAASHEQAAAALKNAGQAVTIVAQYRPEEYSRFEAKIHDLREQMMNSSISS

GRIP2_7, Q9C0E4 = molecular target: GRIP2_7, Q9C0E4
GRIP2_7, Q9C0E4, sequence (Q9C0E4 934-1023): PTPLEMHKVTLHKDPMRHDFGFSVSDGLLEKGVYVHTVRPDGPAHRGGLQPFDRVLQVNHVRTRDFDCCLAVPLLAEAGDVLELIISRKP

LRRC7, Q96NW7 = molecular target: T10, LRRC7, Q96NW7
T10 sequence (Q96NW7 1440-1537, limits assumed, looked up): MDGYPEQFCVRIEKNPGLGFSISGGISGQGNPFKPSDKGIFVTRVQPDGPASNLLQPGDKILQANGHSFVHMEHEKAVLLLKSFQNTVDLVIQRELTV

NHERF3_3, Q5T2W1 = molecular target: T11, NHERF3_3, Q5T2W1
T11 sequence (Q5T2W1 238-333, limits assumed, looked up): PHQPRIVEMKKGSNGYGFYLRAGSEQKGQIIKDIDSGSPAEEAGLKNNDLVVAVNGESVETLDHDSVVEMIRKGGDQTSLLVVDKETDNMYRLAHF

NHERF3_4, Q5T2W1 = molecular target: T12, NHERF3_4, Q5T2W1
T12 sequence (Q5T2W1 373-468, limits assumed, looked up): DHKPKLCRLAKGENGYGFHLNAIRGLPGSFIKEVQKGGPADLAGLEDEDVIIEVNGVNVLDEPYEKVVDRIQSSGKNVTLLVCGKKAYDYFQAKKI

HTRA2, O43464 = molecular target: HTRA2, O43464
HTRA2, O43464, sequence (O43464 355-458): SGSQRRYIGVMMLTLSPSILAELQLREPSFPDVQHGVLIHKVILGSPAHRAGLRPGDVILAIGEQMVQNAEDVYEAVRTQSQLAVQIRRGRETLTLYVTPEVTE

FRMPD4, Q14CM0, sequence (Q14CM0 67-160): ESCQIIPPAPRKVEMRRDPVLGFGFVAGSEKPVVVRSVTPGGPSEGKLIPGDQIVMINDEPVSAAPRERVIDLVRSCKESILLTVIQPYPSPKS

Binder	pKd (FRMPD4, Q14CM0)	pKd (DLG2_2, Q15700)	pKd (ARHGAP21, Q5T5U3)	pKd (APBA2_1, Q99767)	pKd (DLG1_2, Q12959)	pKd (GRIP1_7, Q9Y3R0)	pKd (DFNB31_2, Q9P202)	pKd (MAGI2_2, Q86UL8)	pKd (IL16_4, Q14005)	pKd (PTPN13_1, Q12923)	pKd (APBA2_2, Q99767)	pKd (DLG3_1, Q92796)	pKd (GIPC2, Q8TF65)	pKd (FRMPD2_1, Q68DX3)	pKd (NHERF3_1, Q5T2W1)	pKd (SIPA1L2, Q9P2F8)	pKd (Inadl_5, Q8NI35)	pKd (GRID2IP_1, A4D2P6)	pKd (Inadl_2, Q8NI35)	pKd (MAGI2_3, Q86UL8)	other results
PGKKPEDSRV [SLCO2B1, O94956]	below the threshold	3.5	3.84	below the threshold	3.78	below the threshold	below the threshold	3.64	below the threshold	below the threshold	below the threshold	below the threshold	below the threshold	below the threshold	3.66	below the threshold	below the threshold	below the threshold	below the threshold	below the threshold	pKd (DLG1_3, Q12959): below the threshold; pKd (GRIP2_7, Q9C0E4): below the threshold; pKd (LRRC7, Q96NW7): below the threshold; pKd (NHERF3_3, Q5T2W1): below the threshold; pKd (NHERF3_4, Q5T2W1): below the threshold; pKd (HTRA2, O43464): below the threshold
GNDPDRGTSI [GRID2, O43424]	below the threshold	below the threshold	below the threshold	below the threshold	below the threshold	below the threshold	below the threshold	below the threshold	below the threshold	below the threshold	below the threshold	below the threshold	below the threshold	below the threshold	3.64	below the threshold	below the threshold	below the threshold	below the threshold	below the threshold	pKd (DLG1_3, Q12959): below the threshold; pKd (GRIP2_7, Q9C0E4): below the threshold; pKd (LRRC7, Q96NW7): below the threshold; pKd (NHERF3_3, Q5T2W1): below the threshold; pKd (NHERF3_4, Q5T2W1): below the threshold; pKd (HTRA2, O43464): below the threshold
EPAKETTTNV [SLC2A3, P11169]	3.52	4.16	4.06	below the threshold	4.42	below the threshold	below the threshold	3.51	below the threshold	below the threshold	below the threshold	3.48	below the threshold	below the threshold	3.79	below the threshold	below the threshold	below the threshold	below the threshold	below the threshold	pKd (DLG1_3, Q12959): 3.6; pKd (GRIP2_7, Q9C0E4): below the threshold; pKd (LRRC7, Q96NW7): below the threshold; pKd (NHERF3_3, Q5T2W1): below the threshold; pKd (NHERF3_4, Q5T2W1): below the threshold; pKd (HTRA2, O43464): below the threshold
SGDGKTSVWI [GJC1, P36383]	below the threshold	below the threshold	3.58	below the threshold	below the threshold	below the threshold	below the threshold	below the threshold	below the threshold	below the threshold	below the threshold	below the threshold	below the threshold	3.71	3.75	below the threshold	3.55	below the threshold	below the threshold	below the threshold	pKd (DLG1_3, Q12959): below the threshold; pKd (GRIP2_7, Q9C0E4): 4.37; pKd (LRRC7, Q96NW7): 3.49; pKd (NHERF3_3, Q5T2W1): below the threshold; pKd (NHERF3_4, Q5T2W1): 3.52; pKd (HTRA2, O43464): 4.25
